Data published in article PMC10202812, “Resilience to autosomal dominant Alzheimer’s disease in a Reelin-COLBOS heterozygous man” (Nature Medicine, 2023).

Biological target: T1, neuropilin 1 (NRP1) (UniProt O14786 22-856, biotinylated at a 1:2 molar ratio)
T1 construct: neuropilin 1 (NRP1), recombinant, R&D Systems catalog no; 3870-N1-025; source: bought: R&D Systems (catalog no. 3870-N1-025)
T1 sequence (looked up): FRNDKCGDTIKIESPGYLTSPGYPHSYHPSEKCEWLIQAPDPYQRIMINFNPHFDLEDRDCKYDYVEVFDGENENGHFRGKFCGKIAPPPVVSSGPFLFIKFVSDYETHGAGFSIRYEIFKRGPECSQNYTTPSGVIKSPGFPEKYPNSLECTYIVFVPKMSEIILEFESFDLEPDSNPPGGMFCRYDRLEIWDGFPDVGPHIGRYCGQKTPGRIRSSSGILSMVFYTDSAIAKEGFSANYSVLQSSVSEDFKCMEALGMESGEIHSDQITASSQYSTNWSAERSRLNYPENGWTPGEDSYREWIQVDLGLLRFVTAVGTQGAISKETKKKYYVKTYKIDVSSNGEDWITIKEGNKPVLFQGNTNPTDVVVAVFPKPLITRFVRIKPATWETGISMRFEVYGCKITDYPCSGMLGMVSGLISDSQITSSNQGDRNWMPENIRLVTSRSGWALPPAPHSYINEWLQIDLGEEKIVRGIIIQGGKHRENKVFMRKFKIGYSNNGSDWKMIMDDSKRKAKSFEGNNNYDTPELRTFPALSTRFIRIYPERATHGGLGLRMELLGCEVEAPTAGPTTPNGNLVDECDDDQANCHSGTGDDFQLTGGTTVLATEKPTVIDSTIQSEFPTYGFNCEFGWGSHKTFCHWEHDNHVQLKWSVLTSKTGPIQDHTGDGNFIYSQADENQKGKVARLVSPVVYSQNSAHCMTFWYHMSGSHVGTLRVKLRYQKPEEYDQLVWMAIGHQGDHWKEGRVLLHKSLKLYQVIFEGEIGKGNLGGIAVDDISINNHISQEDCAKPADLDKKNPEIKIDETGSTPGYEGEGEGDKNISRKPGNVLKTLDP
Assay: BLI; biotinylated NRP1 immobilised on streptavidin biosensor tips (Octet); 30 °C, 1,000 rpm; 240 s association, 300 s dissociation; SD Buffer (PBS, 0.05% Tween 20, 0.01% BSA, pH 7.4); 1:1 binding model, global fitting
Conditions: both partners purified

B1: Fc-fusion CTR-RELN H3447R (CTR-RELN-COLBOS) (Fc fusion, human, UniProt P78509 3429-3460, looked up)
chain: STRKQNYMMNFSRQHGLRRFYNRRRRSLRRYP
notes: Reelin (RELN), C-terminal region, amino acids 3,429-3,460 (numbers of the 3,460-residue human protein), with the natural variant H3447R (COLBOS); source: DNA encoding amino acids 3,429-3,460 of RELN-CTR cloned into the pFUSEN-hG2Fc plasmid (InvivoGen)
  fold affinity against WT CTR-RELN: 10 fold
